From patent US20240010707A1 (BIOTEST, published 2024)

Target: T1, von Willebrand factor (UniProt P04275 764-2813, limits assumed)
T1 construct: also called vWF
Experiment: ELISA on coated vWF, bound FVIII detected with chromogenic Coatest SP FVIII reagents; reference value set by definition
Description: All other potencies were calculated in relation to ReFacto AF. […] However, the only significant difference could be detected between Nuwiq and FVIII-19M. The reduced binding, also of FVIII-6rs, might be due to different post-translational modifications made by the CAP-T cells. This could be correlated with the reduced sulfation detected in the heavy and light chain in the Western Blot. Missing sulfation might have influenced vWF binding, as especially the sulfation at Y1683 is important for the binding of vWF.
For the detection of the binding of the FVIII constructs to vWF, another ELISA was performed. In this case, vWF was coated to the wells of a 96-well plate at a concentration of 0.1 U/ml. Afterwards the FVIII variants were applied at a concentration of 0.25 U/ml. ReFacto AF was used as a reference. Each sample was furtheron diluted 1:2 in buffer. A total of 7 serial dilutions were performed. […] After addition of the substrate, the plate was immediately put into a plate reader and the development of the chromogenic substrate was measured at 405 nm for 490 seconds. The generated curves were analyzed using the PLA 3.0 software. Potencies of vWF-binding of the different FVIII products were calculated in relation to ReFacto AF.

potency of binding to vWF (relative to ReFacto AF): 1 relative potency
B1: ReFacto AF (other)
chain: ATRRYYLGAVELSWDYMQSDLGELPVDARFPPRVPKSFPFNTSVVYKKTLFVEFTDHLFNIAKPRPPWMGLLGPTIQAEVYDTVVITLKNMASHPVSLHAVGVSYWKASEGAEYDDQTSQREKEDDKVFPGGSHTYVWQVLKENGPMASDPLCLTYSYLSHVDLVKDLNSGLIGALLVCREGSLAKEKTQTLHKFILLFAVFDEGKSWHSETKNSLMQDRDAASARAWPKMHTVNGYVNRSLPGLIGCHRKSVYWHVIGMGTTPEVHSIFLEGHTFLVRNHRQASLEISPITFLTAQTLLMDLGQFLLFCHISSHQHDGMEAYVKVDSCPEEPQLRMKNNEEAEDYDDDLTDSEMDVVRFDDDNSPSFIQIRSVAKKHPKTWVHYIAAEEEDWDYAPLVLAPDDRSYKSQYLNNGPQRIGRKYKKVRFMAYTDETFKTREAIQHESGILGPLLYGEVGDTLLIIFKNQASRPYNIYPHGITDVRPLYSRRLPKGVKHLKDFPILPGEIFKYKWTVTVEDGPTKSDPRCLTRYYSSFVNMERDLASGLIGPLLICYKESVDQRGNQIMSDKRNVILFSVFDENRSWYLTENIQRFLPNPAGVQLEDPEFQASNIMHSINGYVFDSLQLSVCLHEVAYWYILSIGAQTDFLSVFFSGYTFKHKMVYEDTLTLFPFSGETVFMSMENPGLWILGCHNSDFRNRGMTALLKVSSCDKNTGDYYEDSYEDISAYLLSKNNAIEPRSFSQNPPVLKRHQREITRTTLQSDQEEIDYDDTISVEMKKEDFDIYDEDENQSPRSFQKKTRHYFIAAVERLWDYGMSSSPHVLRNRAQSGSVPQFKKVVFQEFTDGSFTQPLYRGELNEHLGLLGPYIRAEVEDNIMVTFRNQASRPYSFYSSLISYEEDQRQGAEPRKNFVKPNETKTYFWKVQHHMAPTKDEFDCKAWAYFSDVDLEKDVHSGLIGPLLVCHTNTLNPAHGRQVTVQEFALFFTIFDETKSWYFTENMERNCRAPCNIQMEDPTFKENYRFHAINGYIMDTLPGLVMAQDQRIRWYLLSMGSNENIHSIHFSGHVFTVRKKEEYKMALYNLYPGVFETVEMLPSKAGIWRVECLIGEHLHAGMSTLFLVYSNKCQTPLGMASGHIRDFQITASGQYGQWAPKLARLHYSGSINAWSTKEPFSWIKVDLLAPMIIHGIKTQGARQKFSSLYISQFIIMYSLDGKKWQTYRGNSTGTLMVFFGNVDSSGIKHNIFNPPIIARYIRLHPTHYSIRSTLRMELMGCDLNSCSMPLGMESKAISDAQITASSYFTNMFATWSPSKARLHLQGRSNAWRPQVNNPKEWLQVDFQKTMKVTGVTTQGVKSLLTSMYVKEFLISSSQDGHQWTLFFQNGKVKVFQGNQDSFTPVVNSLDPPLLTRYLRIHPQSWVHQIALRMEVLGCEAQDLY
